This is an account of results in patent US9688764B2, “Methods of treating breast cancer by administering anti-human prolactin receptor (PRLR) antibodies” (REGENERON PHARMACEUTICALS, INC., priority 2013, dated 2017).

One data set concerns HEK293 (293) cells. In words: Cell viability (cell kill) assay. The data set is classed as cell-based. The following applies: 293; Table 11; 3 days. Put shortly:
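Anti-PRLR–DM1 ADCs (non-cleavable SMCC linker) or free DM1-SMe, 500 nM to 5 pM for 3 days on parental or hPRLR-overexpressing lines. HEK293: CCK8 OD450; MCF7: Hoechst nuclear counts by imaging.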

Another data set concerns PC3 cells. In words: Cell viability (cell kill) assay. The class given is cell-based. The conditions noted are these: Table 11, 3 days. The text has this: PRLR-overexpressing cells, including HEK293, PC3, MCF7 and NCI-N87, were generated to assess the ability of anti-PRLR conjugated antibodies to reduce cell viability. For comparative purposes, PC3 and T47D cells with overexpressed ErbB2 were also generated, as well as an MCF7 cell line over-expressing both hPRLR and hErbB2. Briefly, Lipofectamine® 2000-mediated transfection methodology was utilized to generate HEK293 cells expressing human PRLR (HEK293/hPRLR) or human ErbB2 (HEK293/hErbB2). Lipofectamine LTX with Plus Reagent was used to generate PC3 cells expressing human PRLR (PC3/hPRLR) or human ErbB2 (PC3/hErbB2). Lentiviral-mediated transduction was utilized to generate MCF7 cells expressing human PRLR (MCF7/hPRLR), NCI-N87 cells expressing human PRLR (NCI-N87/hPRLR), T47D cells over-expressing human ErbB2 (T47D/hErbB2), and MCF7 cells expressing both human PRLR and human ErbB2 (MCF7/hPRLR/hErbB2). All lines were selected for at least two weeks in complete growth media plus appropriate selection reagents. Stably expressing populations were enriched for PRLR expression via FACS using the anti PRLR antibody Control I.
Next, the ability of anti-PRLR-DM1 antibody-drug conjugates (i.e., anti-PRLR antibodies conjugated to DM1 via a non-cleavable linker [SMCC]) to reduce cell viability was determined using in vitro cell based assays. Cells were seeded in PDL-coated 96 well plates at 1500 to 10000 cells per well in complete growth media and allowed to grow overnight. For cell viability curves, ADCs or free DM1 (as the methyl disulfide derivative DM1-SMe) were added to the cells at final concentrations ranging from 500 nM to 5 pM and incubated for 3 days. The 293, PC3 and T47D cells were incubated with CCK8 (Dojindo, Rockville, Md.) for the final 1-3 hours and the absorbance at 450 nm (OD450) was determined on a Flexstation3 (Molecular Devices, Sunnyvale, Calif.). MCF7 cells were treated with Hoechst 33342 nuclear stain while being fixed with 4% formaldehyde. Images were acquired on the ImageXpress micro XL (Molecular Devices, Sunnyvale, Calif.) and nuclear counts were determined via Columbus image analysis software (Perkin Elmer, Shelton, Conn.). Background OD450 values (PC3, 293, and T47D) or nuclear counts (MCF7) from digitonin (40 nM) treated cells was subtracted from all wells and viability was expressed as a percentage of the untreated controls. IC50 values were determined from a four-parameter logistic equation over a 10-point response curve (GraphPad Prism).
Finally, the potency of anti-PRLR antibodies conjugated to DM1 via the non-cleavable linker SMCC was compared to the cell killing potency of anti-PRLR antibodies conjugated to MMAE via the cleavable linker: mc-vc-PAB (available from Concortis, San Diego, Calif.). Cells used in this experiment were PC3, PC3/hPRLR, MCF7/ATCC and MCF7/PRLR.

In a further data set the test system is PC3/hPRLR cells. The data set is described as follows: Cell viability (cell kill) assay. The data set is classed as cell-based, human. The conditions noted are these: PC3/PRLR; Table 11; 3 days. The gist of the method: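 PC3 and PC3/hPRLR (lipofection-generated, FACS-enriched for PRLR) cells exposed 3 days to anti-PRLR ADCs or free DM1-SMe, 500 nM to 5 pM. Viability by CCK8 OD450, digitonin background subtracted, as % of untreated; IC50 from four-parameter fit of 10-point curves.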

The test system of the next data set is MCF7 (MCF7/ATCC) cells. In words: Cell viability (cell kill) assay, nuclear counts. The class given is cell-based. The conditions noted are these: MCF7; Table 12; 3 days. The gist of the method: (§1)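 Anti-PRLR ADCs or free DM1-SMe were added at 500 nM to 5 pM final to cells seeded overnight and were incubated 3 days. MCF7 lines were fixed with 4% formaldehyde plus Hoechst 33342, and nuclei were counted by imaging, with digitonin […] background subtracted. Viability was expressed as % of untreated cells, and IC50 was obtained from a 4-parameter fit of a 10-point curve.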

Data set [1] concerns MCF7/hPRLR (MCF7/PRLR) cells. The data set is described as follows: Cell viability (cell kill) assay, nuclear counts. The class given is cell-based, human. The conditions noted are these: Table 12, 3 days. The gist of the method:
as §1

The next data set deals with T47D cells. In words: Cell viability (cell kill) assay. The class given is cell-based. The conditions noted are these: T47D, Table 12, 3 days; for IC50: read-out: IC50. Put shortly: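 T47D cells grown overnight, then exposed 3 days to anti-PRLR ADCs (DM1 via non-cleavable SMCC linker, or other maytansinoid toxins) or free DM1-SMe, 500 nM to 5 pM. Viability by CCK8 OD450, digitonin background subtracted, as % of untreated; IC50 from 10-point four-parameter fit. PRL (15 nM) co-incubation tested separately.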

The subject of a further data set is MCF7/PRLR tumors. The data set is described as follows: Tumor growth inhibition in xenograft-bearing mice. The following applies: for Final Tumor size mm^3 (mean ± SEM): MCF7/PRLR tumors TRIAL #2, NCr Nude mice, Day 63. The data set is classed as in vivo, NCr nude mice. The text has this: (§2) Briefly, 20×10^6 MCF7/PRLR cells (ATCC HTB-22 transfected with full length hPRLR as previously described) were implanted subcutaneously into the left mammary fat pad of female NCr nude mice. In other studies, 10×10^6 PC3/PRLR (ATCC CRL-1435 transfected with full length hPRLR as previously described) were implanted subcutaneously into the left flank of male SCID mice. Additionally, 10×10^6 parental T47D (ATCC HTB-133) or […] T47D#11 cells (ATCC HTB-133 serially passaged in vivo as described below) were subcutaneously implanted into the left flank of female CB17 SCID mice. All mice were obtained from Taconic (Hudson, N.Y.). Each bolus of cells was supplemented with a 90-day estrogen release pellet (1.7 mg/pellet; Innovative Research America, Sarasota Fla.). Once tumors had reached an average volume of 250 mm^3, mice were randomized into groups of seven and dosed with anti-PRLR antibody-drug conjugates of the invention or control reagents. Control reagents included PBS vehicle, free methyl-disulfide DM1 (DM1-SMe) and isotype Control 1-DM1.
(§3) In multi-dose studies, mice were dosed once a week for a total of three weeks with tumor volumes and body weights being monitored twice weekly throughout the study. Test ADCs were dosed at 5 and/or 15 mg/kg in the multi-dose studies. In single-dose studies, mice received a single dose of test ADC, and tumor volumes and body weights were monitored twice weekly throughout the study. Test ADCs were dosed at 1, 2.5, 5, and 15 mg/kg in the single-dose studies. Average tumor size as well as tumor growth inhibition relative to the vehicle treated group were calculated for each group. Tumors were measured with calipers twice a week until the average size of the vehicle group reached 1000 mm^3. Tumor size was calculated using the formula (length×width^2)/2. Tumor growth inhibition was calculated according to the following formula: (1−((Tfinal−Tinitial)/(Cfinal−Cinitial)))*100, where T (treated group) and C (control group) represent the mean tumor mass on the day the vehicle group reached 1000 mm^3. […] Results are summarized in Tables 21-25 (multi-dose) and Table 26 (single dose). (NT=not tested in the particular experiment shown).

For another data set, the system named is PC3/PRLR tumors. The data set is described as follows: Tumor growth inhibition in xenograft-bearing mice. The class given is in vivo, SCID mice. The following applies: for Average Tumor Growth Inhibition (%): SCID mice.
From the text: as §2, §3

The next data set concerns T47D#11 tumors. In words: Tumor growth inhibition in xenograft-bearing mice. The class given is in vivo, CB17 SCID mice. The conditions noted are these: for Average Tumor Growth Inhibition (%): T47D#11 tumors, multi-dose 5 mg/kg, SCID mice, Day 66; for effect on T47D#11 tumor growth: multi-dose, 5 and 15 mg/kg.
From the text: as §2, §3

The nature of data set [2]: Conjugate characterization: protein and linker/payload concentrations, payload loading (UV, MALDI-TOF, SEC-HPLC, RP-HPLC). The class given is physicochemical. The following applies: Anti-PRLR-SMCC-DM1 conjugates; Table 9. The text has this: Selected anti-PRLR antibodies were conjugated to the maytansinoid DM1 through an SMCC linker using methods similar to those set forth in U.S. Pat. No. 5,208,020 and US Patent Application Publication No. 2010/0129314, the disclosures of which are incorporated by reference herein in their entireties. The conjugates were purified by size exclusion chromatography and sterile filtered. All starting materials and solvents were purchased commercially and used without purification, unless otherwise noted.
Protein and linker/payload concentrations were determined by UV spectral analysis and MALDI-TOF mass spectrometry. Size-exclusion HPLC established that all conjugates used were >95% monomeric, and RP-HPLC established that there was <0.5% unconjugated linker payload. Yields are reported in Table 8 and 9 based on protein. All conjugated antibodies were analyzed by UV for linker payload loading values according to Hamblett et al, 2004, Clinical Cancer Research 10(20):7063-7070, and by mass difference, native versus conjugated.
Background: Size exclusion chromatography separates by hydrodynamic size, large species first.

B1: H1H6975N-DM1 (conjugate)
VH: EVHLVESGGGLVQPGGSLRLSCAASGFTFSSYEMNWVRQTPGKGLEWISHISSRSVIIYYADSVKGRFTISRDNAKNSLFLQMNSLRAEDTAVYFCAGITIFGIPEYWGQGTLVTVSS
VL: EIVLTQSPATLSLSPGERATLSCRASQSVSSYFAWYQQKPGQAPRLLIYDASSRATGIPTRFSGSGSGTDFTLTISSLEPEDFAVYYCQQRSSWPITFGQGTRLEIK
What is called IC50 is the point on the concentration scale where inhibition reaches its midpoint. Consider B1, for which the “% Kill” value in the data set with HEK293 (293) cells was 87%; with PC3/hPRLR cells, 68%; with MCF7 (MCF7/ATCC) cells, 73%; in data set [1] it was 87%; in the data set on T47D cells, 80%. The IC50 in the data set with HEK293 (293) cells stood at 100 nM; in the data set on PC3 cells it was 200 nM; in the data set on PC3/hPRLR cells, 2.7 nM; in the data set with MCF7 (MCF7/ATCC) cells, 150 nM; in data set [1], 0.49 nM; with T47D cells, 6.9 nM. Also, the “effect on MCF7/PRLR tumor growth” value in the data set on MCF7/PRLR tumors (multi-dose trial 1, 5 and 15 mg/kg) is on record as “potently inhibited MCF7/PRLR tumor growth”. Moreover, in the data set on PC3/PRLR tumors (PC3/PRLR tumors TRIAL #1, multi-dose 15 mg/kg, Day 63), the “Average Tumor Growth Inhibition (%)” value worked out at 38%. Also, the “effect on PC3/PRLR tumor growth” value in the data set on PC3/PRLR tumors (multi-dose, especially at 15 mg/kg) was “demonstrated inhibition of tumor growth”.

B2: H1H6782P-DM1: anti-PRLR antibody H1H6782P conjugated to DM1 through an SMCC linker (conjugate)
VH: EVQLVESGGGLVQPGRSLRLSCAASGFTFDDYAMHWVRQAPGKGLEWVSGIIWNSGHIGYGDSVKGRFTISRDNAKKSLYLQMNSLRAEDTALYYCARDSGRYQSYFDYWGQGTLVTVSS
VL: DIQMTQSPSTLSASVGDRVTITCRASHIISSWLAWYQQKPGKAPKVLIFKASSLESGVPSRFSGSGSGTEFTLTISSLQPDDFATYYCQQYNTYSRTFGQGTKVEIK
Regarding B2, the IC50 in the data set on HEK293 (293) cells was 100 nM; with PC3/hPRLR cells, 0.92 nM; in the data set on MCF7 (MCF7/ATCC) cells it was 120 nM; in data set [1], 0.65 nM; with T47D cells it was 4.19 nM. Further, the “% Kill” value is given as 64% in the data set with PC3/hPRLR cells, 57% with MCF7 (MCF7/ATCC) cells, 85% in data set [1] and 74% with T47D cells. In addition, the “Final Tumor size mm^3 (mean ± SEM)” value in the data set on MCF7/PRLR tumors (multi-dose 5 mg/kg) was 74 ± 34 mm^3; in the data set with MCF7/PRLR tumors (multi-dose 15 mg/kg), 0 ± 0 mm^3. For the same molecule, the “Average Tumor Growth Inhibition (%)” value in the data set with PC3/PRLR tumors (PC3/PRLR tumors TRIAL #2, multi-dose 15 mg/kg, Day 55) is 85%; with T47D#11 tumors it was 90%. Moreover, the “effect on T47D#11 tumor growth” value with T47D#11 tumors is “potently inhibited tumor growth”. Also, the “Payload:Antibody Molar Ratio (MS)” value in [2] came out at 2.8.

B3: H1H6765P-DM1: anti-PRLR antibody H1H6765P conjugated to DM1 through an SMCC linker (conjugate)
VH: EVQLVESGGGVVRPGGSLRLSCVGSGFSFDDHGMNWVRQGPGKGLEWVSGFNWNGGSTNYAESVKGRFTISRDNARNSLFLQMNSLRAEDTALYYCVRGRSGWFNDAFDVWGPGTMVTVSS
VL: EIVLTQSPGTLSLSPGERATLSCRASQTINSNYLAWYRQKPGQTPRLLIYGTSSRATGIPDRFSGSGSGTDFSLTISRLEPEDFAVFYCQQYAGLPTFGPGTKVDIK
On to B3, for which the “% Kill” value in the data set on HEK293 (293) cells came out at 86%; in the data set on PC3 cells, 70%; in the data set with PC3/hPRLR cells, 70%; in the data set on MCF7 (MCF7/ATCC) cells, 68%; in data set [1] it was 84%; in the data set with T47D cells, 78%. Moreover, the IC50 in the data set on HEK293 (293) cells is 100 nM; with PC3/hPRLR cells, 0.57 nM; with MCF7 (MCF7/ATCC) cells, 150 nM; in [1] it was 0.18 nM; in the data set with T47D cells, 1.63 nM. The “Final Tumor size mm^3 (mean ± SEM)” value in the data set with MCF7/PRLR tumors (multi-dose 5 mg/kg) is listed as 90 ± 56 mm^3. The “Average Tumor Growth Inhibition (%)” value in the data set with PC3/PRLR tumors (PC3/PRLR tumors TRIAL #2, multi-dose 5 mg/kg, Day 55) is given as 70%; in the data set with T47D#11 tumors, 100%. Moreover, the “effect on T47D#11 tumor growth” value in the data set with T47D#11 tumors was “potently inhibited tumor growth”. In addition, the “Payload:Antibody Molar Ratio (MS)” value in [2] turned out to be 2.3.
